Measured values: article PMC8897147 (Acta Pharmaceutica Sinica. B, 2021)

B1: RAMP2-Ypet (receptor activity-modulating protein 2) (natural protein)
chain: QPLPTTGTPGSEGGTVKNYETAVQFCWNHYKDQMDPIEKDWCDWAMISRPYSTLRDCLEHFAELFDLGFPNPLAERIIFETHQIHFANCSLVQPTFSDPPEDVLLAMIIAPICLIPFLITLVVWRSKDSEAQA
B2: RAMP1-Ypet (receptor activity-modulating protein 1) (natural protein)
chain: CQEANYGALLRELCLTQFQVDMEAVGETLWCDWGRTIRSYRELADCTWHMAEKLGCFWPNAEVDRFFLAVHGRYFRSCPISGRAVRDPPGSILYPFIVVPITVTLLVTALVVWQSKRTEGIV
B3: RAMP3-Ypet (receptor activity-modulating protein 3) (natural protein)
chain: RAGGCNETGMLERLPLCGKAFADMMGKVDVWKWCNLSEFIVYYESFTNCTEMEANVVGCYWPNPLAQGFITGIHRQFFSNCTVDRVHLEDPPDEVLIPLIVIPVVLTVAMAGLVVWRSKRTDTLL

What was measured:
Test in all cases: FRET or BRET
[1] = target: T1, glucagon-like peptide-2 receptor-Rluc8 (UniProt O95838 1-553)
T1 sequence: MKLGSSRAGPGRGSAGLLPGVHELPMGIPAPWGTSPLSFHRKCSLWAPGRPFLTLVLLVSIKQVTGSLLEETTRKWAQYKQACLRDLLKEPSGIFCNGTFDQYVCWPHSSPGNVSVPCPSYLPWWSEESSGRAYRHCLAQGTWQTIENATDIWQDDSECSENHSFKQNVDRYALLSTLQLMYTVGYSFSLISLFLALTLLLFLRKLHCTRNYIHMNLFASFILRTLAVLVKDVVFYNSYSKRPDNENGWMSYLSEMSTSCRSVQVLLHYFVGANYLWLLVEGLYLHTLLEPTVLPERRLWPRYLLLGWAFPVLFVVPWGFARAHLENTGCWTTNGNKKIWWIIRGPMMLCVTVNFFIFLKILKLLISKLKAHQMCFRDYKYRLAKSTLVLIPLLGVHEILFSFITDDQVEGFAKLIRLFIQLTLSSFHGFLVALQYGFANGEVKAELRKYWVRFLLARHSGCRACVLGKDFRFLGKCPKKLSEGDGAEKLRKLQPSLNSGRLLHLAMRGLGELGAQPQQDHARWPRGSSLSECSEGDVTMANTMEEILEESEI

[2] = target: calcitonin-like receptor-Rluc8 (human, UniProt Q16602 23-461)
calcitonin-like receptor-Rluc8, sequence (Q16602 23-461): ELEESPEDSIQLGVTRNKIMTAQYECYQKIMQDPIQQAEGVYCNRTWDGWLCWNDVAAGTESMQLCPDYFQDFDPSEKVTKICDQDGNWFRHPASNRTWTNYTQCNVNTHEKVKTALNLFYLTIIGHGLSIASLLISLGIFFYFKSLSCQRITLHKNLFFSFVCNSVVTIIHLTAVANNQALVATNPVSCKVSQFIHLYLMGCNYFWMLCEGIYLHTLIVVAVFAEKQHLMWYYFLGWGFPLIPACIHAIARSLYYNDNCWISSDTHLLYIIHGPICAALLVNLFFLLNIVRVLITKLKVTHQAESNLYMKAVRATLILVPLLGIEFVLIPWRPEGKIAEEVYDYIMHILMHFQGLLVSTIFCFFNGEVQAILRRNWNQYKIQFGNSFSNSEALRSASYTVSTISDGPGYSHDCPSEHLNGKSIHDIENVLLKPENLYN

[3] = target: glucagon receptor-Rluc8 (UniProt P47871 26-477)
glucagon receptor-Rluc8, sequence (P47871 26-477): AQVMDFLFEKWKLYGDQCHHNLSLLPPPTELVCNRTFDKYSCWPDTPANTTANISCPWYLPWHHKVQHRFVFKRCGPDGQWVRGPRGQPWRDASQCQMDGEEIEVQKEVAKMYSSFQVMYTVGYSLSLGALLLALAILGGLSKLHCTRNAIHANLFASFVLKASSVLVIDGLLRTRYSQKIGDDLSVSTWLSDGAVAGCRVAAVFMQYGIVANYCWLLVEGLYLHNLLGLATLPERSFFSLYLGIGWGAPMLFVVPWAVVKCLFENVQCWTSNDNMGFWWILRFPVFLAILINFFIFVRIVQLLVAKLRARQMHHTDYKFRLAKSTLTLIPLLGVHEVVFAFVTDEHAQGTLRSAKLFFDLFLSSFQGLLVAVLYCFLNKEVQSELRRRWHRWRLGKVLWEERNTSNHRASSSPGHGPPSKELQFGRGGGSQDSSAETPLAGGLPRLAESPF

[4] = target: T2, growth hormone-releasing hormone receptor-Rluc8 (UniProt Q02643 23-423)
T2 sequence: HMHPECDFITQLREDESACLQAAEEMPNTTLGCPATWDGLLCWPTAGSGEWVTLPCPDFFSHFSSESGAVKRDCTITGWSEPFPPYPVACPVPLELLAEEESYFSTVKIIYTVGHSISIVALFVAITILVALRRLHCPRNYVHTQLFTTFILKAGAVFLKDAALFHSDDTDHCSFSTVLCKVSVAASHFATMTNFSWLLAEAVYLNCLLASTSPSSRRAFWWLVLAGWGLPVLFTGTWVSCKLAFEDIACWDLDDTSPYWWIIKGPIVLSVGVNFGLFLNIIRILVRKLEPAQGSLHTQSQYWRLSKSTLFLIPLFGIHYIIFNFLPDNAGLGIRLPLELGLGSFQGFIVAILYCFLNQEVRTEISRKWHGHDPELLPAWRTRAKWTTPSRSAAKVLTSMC

[5] = target: T3, gastric inhibitory polypeptide receptor-Rluc8 (UniProt P48546 22-466)
T3 sequence: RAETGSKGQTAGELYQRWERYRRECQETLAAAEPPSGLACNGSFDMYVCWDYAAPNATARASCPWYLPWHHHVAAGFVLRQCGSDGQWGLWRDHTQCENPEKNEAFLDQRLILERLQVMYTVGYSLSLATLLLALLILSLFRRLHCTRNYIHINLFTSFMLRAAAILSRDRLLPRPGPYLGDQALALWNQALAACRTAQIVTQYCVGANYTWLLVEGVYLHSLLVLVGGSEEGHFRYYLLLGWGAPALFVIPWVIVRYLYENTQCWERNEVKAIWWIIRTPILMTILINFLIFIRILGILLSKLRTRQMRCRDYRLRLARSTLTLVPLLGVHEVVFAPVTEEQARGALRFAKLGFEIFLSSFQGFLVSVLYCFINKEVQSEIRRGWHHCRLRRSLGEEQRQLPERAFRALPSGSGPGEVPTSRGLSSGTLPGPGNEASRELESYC

[6] = target: glucagon-like peptide-1 receptor-Rluc8 (UniProt P43220 24-463)
[7] = target: secretin receptor-Rluc8 (UniProt P47872 23-440)
secretin receptor-Rluc8, sequence (P47872 23-440): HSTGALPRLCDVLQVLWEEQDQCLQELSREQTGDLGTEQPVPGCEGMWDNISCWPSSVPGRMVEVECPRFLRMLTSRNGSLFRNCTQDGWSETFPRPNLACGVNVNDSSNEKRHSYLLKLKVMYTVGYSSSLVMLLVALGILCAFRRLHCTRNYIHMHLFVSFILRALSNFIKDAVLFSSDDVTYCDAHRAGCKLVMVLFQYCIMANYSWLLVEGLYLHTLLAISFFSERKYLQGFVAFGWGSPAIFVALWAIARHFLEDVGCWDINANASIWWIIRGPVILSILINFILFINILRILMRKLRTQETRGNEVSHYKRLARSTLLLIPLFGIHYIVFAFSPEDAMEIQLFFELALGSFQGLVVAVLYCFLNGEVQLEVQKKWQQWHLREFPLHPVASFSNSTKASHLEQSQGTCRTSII

Binder	BRET50 (Kd) [1]	BRET50 (Kd) [2]	BRET50 (Kd) [3]	BRET50 (Kd) [4]	BRET50 (Kd) [5]	BRET50 (Kd) [6]	BRET50 (Kd) [7]
B1	7.45 intensity ratio of RAMP:receptor	0.114 intensity ratio of RAMP:receptor	1.65 intensity ratio of RAMP:receptor	0.893 intensity ratio of RAMP:receptor	2.75 intensity ratio of RAMP:receptor		
B2		0.077 intensity ratio of RAMP:receptor	1.55 intensity ratio of RAMP:receptor		4.6 intensity ratio of RAMP:receptor		
B3	1.66 intensity ratio of RAMP:receptor	0.087 intensity ratio of RAMP:receptor	2.34 intensity ratio of RAMP:receptor	2.09 intensity ratio of RAMP:receptor	0.352 intensity ratio of RAMP:receptor	1 intensity ratio of RAMP:receptor	1.63 intensity ratio of RAMP:receptor
